{"source": "the supplement of paper PMC9112550", "about": "“Optimization of the antimicrobial peptide Bac7 by deep mutational scanning” (BMC Biology, 2022);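 further: peptides expressed intracellularly from a pBAD plasmid library in pooled LB shake-flask culture, induced with 0.3% L-arabinose, DNA abundance read by NGS, three biological replicates, DESeq2 with apeglm shrinkage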", "system": "Escherichia coli TOP10", "assay": "shrunken log2 fold change of peptide-encoding DNA abundance (4.5 h post-induction vs induction); higher = less antimicrobial activity (less host growth inhibition)", "conditions": "time post-induction: 4.5 h; library: site-saturation at positions 5, 18, 19, 20", "data": [{"sequence": "RRIRRRPPRLPRPRPRPYQSPRP", "values": [{"measurement": "shrunken log2 fold change", "value": -0.145}]}, {"sequence": "RRIRFRPPRLPRPRPRPCELPRP", "values": [{"measurement": "shrunken log2 fold change", "value": 0.00618}]}, {"sequence": "RRIRQRPPRLPRPRPRPWDKPRP", "values": [{"measurement": "shrunken log2 fold change", "value": -0.153}]}, {"sequence": "RRIRVRPPRLPRPRPRPHMDPRP", "values": [{"measurement": "shrunken log2 fold change", "value": -0.449}]}, {"sequence": "RRIRERPPRLPRPRPRPRGWPRP", "values": [{"measurement": "shrunken log2 fold change", "value": 0.917}]}, {"sequence": "RRIRDRPPRLPRPRPRPTLNPRP", "values": [{"measurement": "shrunken log2 fold change", "value": 0.171}]}, {"sequence": "RRIRIRPPRLPRPRPRPVFWPRP", "values": [{"measurement": "shrunken log2 fold change", "value": 0.201}]}, {"sequence": "RRIRHRPPRLPRPRPRPQEDPRP", "values": [{"measurement": "shrunken log2 fold change", "value": -0.106}]}, {"sequence": "RRIRARPPRLPRPRPRPVDVPRP", "values": [{"measurement": "shrunken log2 fold change", "value": -0.113}]}, {"sequence": "RRIRKRPPRLPRPRPRPLFCPRP", "values": [{"measurement": "shrunken log2 fold change", "value": 0.177}]}, {"sequence": "RRIRERPPRLPRPRPRPYMFPRP", "values": [{"measurement": "shrunken log2 fold change", "value": -0.736}]}, {"sequence": "RRIRCRPPRLPRPRPRPVKFPRP", "values": [{"measurement": "shrunken log2 fold change", "value": -0.192}]}, {"sequence": "RRIRFRPPRLPRPRPRPCTFPRP", "values": [{"measurement": "shrunken log2 fold change", "value": -0.0554}]}, {"sequence": "RRIRQRPPRLPRPRPRPGEFPRP", "values": [{"measurement": "shrunken log2 fold change", "value": 0.313}]}, {"sequence": "RRIRMRPPRLPRPRPRPQHTPRP", "values": [{"measurement": "shrunken log2 fold change", "value": -0.0951}]}, {"sequence": "RRIRCRPPRLPRPRPRPVFLPRP", "values": [{"measurement": "shrunken log2 fold change", "value": -0.429}]}, {"sequence": "RRIRDRPPRLPRPRPRPDLVPRP", "values": [{"measurement": "shrunken log2 fold change", "value": 1.16}]}, {"sequence": "RRIRNRPPRLPRPRPRPGLEPRP", "values": [{"measurement": "shrunken log2 fold change", "value": -0.0966}]}, {"sequence": "RRIRMRPPRLPRPRPRPLLCPRP", "values": [{"measurement": "shrunken log2 fold change", "value": 0.473}]}, {"sequence": "RRIRWRPPRLPRPRPRPPPRPRP", "values": [{"measurement": "shrunken log2 fold change", "value": 1.14}]}, {"sequence": "RRIRHRPPRLPRPRPRPRASPRP", "values": [{"measurement": "shrunken log2 fold change", "value": 0.286}]}, {"sequence": "RRIRFRPPRLPRPRPRPWFMPRP", "values": [{"measurement": "shrunken log2 fold change", "value": -0.609}]}, {"sequence": "RRIRSRPPRLPRPRPRPRMAPRP", "values": [{"measurement": "shrunken log2 fold change", "value": 1.31}]}, {"sequence": "RRIRRRPPRLPRPRPRPSEAPRP", "values": [{"measurement": "shrunken log2 fold change", "value": -0.0295}]}, {"sequence": "RRIRMRPPRLPRPRPRPHVCPRP", "values": [{"measurement": "shrunken log2 fold change", "value": -0.107}]}, {"sequence": "RRIRVRPPRLPRPRPRPERVPRP", "values": [{"measurement": "shrunken log2 fold change", "value": -0.107}]}, {"sequence": "RRIRERPPRLPRPRPRPETYPRP", "values": [{"measurement": "shrunken log2 fold change", "value": -0.152}]}, {"sequence": "RRIRCRPPRLPRPRPRPNKSPRP", "values": [{"measurement": "shrunken log2 fold change", "value": -0.584}]}, {"sequence": "RRIRPRPPRLPRPRPRPMWHPRP", "values": [{"measurement": "shrunken log2 fold change", "value": -0.208}]}, {"sequence": "RRIRARPPRLPRPRPRPYDWPRP", "values": [{"measurement": "shrunken log2 fold change", "value": 0.0315}]}, {"sequence": "RRIRKRPPRLPRPRPRPPASPRP", "values": [{"measurement": "shrunken log2 fold change", "value": 0.424}]}, {"sequence": "RRIRMRPPRLPRPRPRPGHLPRP", "values": [{"measurement": "shrunken log2 fold change", "value": 0.0373}]}, {"sequence": "RRIRYRPPRLPRPRPRPQWCPRP", "values": [{"measurement": "shrunken log2 fold change", "value": -0.219}]}, {"sequence": "RRIRARPPRLPRPRPRPGIVPRP", "values": [{"measurement": "shrunken log2 fold change", "value": 0.174}]}, {"sequence": "RRIRSRPPRLPRPRPRPYAPPRP", "values": [{"measurement": "shrunken log2 fold change", "value": -0.205}]}, {"sequence": "RRIRVRPPRLPRPRPRPCNMPRP", "values": [{"measurement": "shrunken log2 fold change", "value": -0.247}]}, {"sequence": "RRIRERPPRLPRPRPRPGWTPRP", "values": [{"measurement": "shrunken log2 fold change", "value": 0.0709}]}, {"sequence": "RRIRGRPPRLPRPRPRPTRRPRP", "values": [{"measurement": "shrunken log2 fold change", "value": 0.663}]}, {"sequence": "RRIRVRPPRLPRPRPRPCDYPRP", "values": [{"measurement": "shrunken log2 fold change", "value": -0.845}]}, {"sequence": "RRIRCRPPRLPRPRPRPHFLPRP", "values": [{"measurement": "shrunken log2 fold change", "value": -0.657}]}, {"sequence": "RRIRGRPPRLPRPRPRPWHNPRP", "values": [{"measurement": "shrunken log2 fold change", "value": -0.145}]}, {"sequence": "RRIRPRPPRLPRPRPRPPFTPRP", "values": [{"measurement": "shrunken log2 fold change", "value": 0.185}]}, {"sequence": "RRIRPRPPRLPRPRPRPDAEPRP", "values": [{"measurement": "shrunken log2 fold change", "value": 0.496}]}, {"sequence": "RRIRMRPPRLPRPRPRPTCYPRP", "values": [{"measurement": "shrunken log2 fold change", "value": 0.0375}]}, {"sequence": "RRIRWRPPRLPRPRPRPDIYPRP", "values": [{"measurement": "shrunken log2 fold change", "value": -0.0594}]}, {"sequence": "RRIRYRPPRLPRPRPRPQSGPRP", "values": [{"measurement": "shrunken log2 fold change", "value": -0.223}]}, {"sequence": "RRIRNRPPRLPRPRPRPRSWPRP", "values": [{"measurement": "shrunken log2 fold change", "value": 0.201}]}, {"sequence": "RRIRFRPPRLPRPRPRPWHGPRP", "values": [{"measurement": "shrunken log2 fold change", "value": -0.151}]}, {"sequence": "RRIRPRPPRLPRPRPRPDADPRP", "values": [{"measurement": "shrunken log2 fold change", "value": 0.0741}]}, {"sequence": "RRIRQRPPRLPRPRPRPKILPRP", "values": [{"measurement": "shrunken log2 fold change", "value": -0.0155}]}, {"sequence": "RRIRYRPPRLPRPRPRPPRIPRP", "values": [{"measurement": "shrunken log2 fold change", "value": -0.0175}]}, {"sequence": "RRIRDRPPRLPRPRPRPKSNPRP", "values": [{"measurement": "shrunken log2 fold change", "value": -0.305}]}, {"sequence": "RRIRIRPPRLPRPRPRPKRLPRP", "values": [{"measurement": "shrunken log2 fold change", "value": 0.181}]}, {"sequence": "RRIRPRPPRLPRPRPRPLNAPRP", "values": [{"measurement": "shrunken log2 fold change", "value": -0.0965}]}, {"sequence": "RRIRDRPPRLPRPRPRPSYTPRP", "values": [{"measurement": "shrunken log2 fold change", "value": -0.302}]}, {"sequence": "RRIRVRPPRLPRPRPRPEKHPRP", "values": [{"measurement": "shrunken log2 fold change", "value": -0.0527}]}, {"sequence": "RRIRMRPPRLPRPRPRPLDMPRP", "values": [{"measurement": "shrunken log2 fold change", "value": 0.167}]}, {"sequence": "RRIRVRPPRLPRPRPRPHASPRP", "values": [{"measurement": "shrunken log2 fold change", "value": -0.15}]}, {"sequence": "RRIRLRPPRLPRPRPRPDVTPRP", "values": [{"measurement": "shrunken log2 fold change", "value": -0.0876}]}, {"sequence": "RRIRKRPPRLPRPRPRPPPYPRP", "values": [{"measurement": "shrunken log2 fold change", "value": 0.249}]}, {"sequence": "RRIRDRPPRLPRPRPRPQNNPRP", "values": [{"measurement": "shrunken log2 fold change", "value": -0.653}]}, {"sequence": "RRIRSRPPRLPRPRPRPGNVPRP", "values": [{"measurement": "shrunken log2 fold change", "value": -0.0126}]}, {"sequence": "RRIRFRPPRLPRPRPRPDGKPRP", "values": [{"measurement": "shrunken log2 fold change", "value": -0.3}]}, {"sequence": "RRIRGRPPRLPRPRPRPIVIPRP", "values": [{"measurement": "shrunken log2 fold change", "value": -0.227}]}, {"sequence": "RRIRIRPPRLPRPRPRPVCWPRP", "values": [{"measurement": "shrunken log2 fold change", "value": 0.32}]}, {"sequence": "RRIRKRPPRLPRPRPRPPKLPRP", "values": [{"measurement": "shrunken log2 fold change", "value": 0.658}]}, {"sequence": "RRIRVRPPRLPRPRPRPWSWPRP", "values": [{"measurement": "shrunken log2 fold change", "value": 0.15}]}, {"sequence": "RRIRPRPPRLPRPRPRPTFKPRP", "values": [{"measurement": "shrunken log2 fold change", "value": 0.0985}]}, {"sequence": "RRIRHRPPRLPRPRPRPPDKPRP", "values": [{"measurement": "shrunken log2 fold change", "value": -0.112}]}, {"sequence": "RRIRLRPPRLPRPRPRPSHMPRP", "values": [{"measurement": "shrunken log2 fold change", "value": -0.228}]}, {"sequence": "RRIRDRPPRLPRPRPRPMTFPRP", "values": [{"measurement": "shrunken log2 fold change", "value": -0.0951}]}, {"sequence": "RRIRCRPPRLPRPRPRPRMAPRP", "values": [{"measurement": "shrunken log2 fold change", "value": 0.331}]}, {"sequence": "RRIRHRPPRLPRPRPRPKGHPRP", "values": [{"measurement": "shrunken log2 fold change", "value": -0.311}]}, {"sequence": "RRIRCRPPRLPRPRPRPHKNPRP", "values": [{"measurement": "shrunken log2 fold change", "value": -0.418}]}, {"sequence": "RRIRCRPPRLPRPRPRPPPQPRP", "values": [{"measurement": "shrunken log2 fold change", "value": 1.34}]}, {"sequence": "RRIRYRPPRLPRPRPRPNQNPRP", "values": [{"measurement": "shrunken log2 fold change", "value": -0.967}]}, {"sequence": "RRIRERPPRLPRPRPRPCCGPRP", "values": [{"measurement": "shrunken log2 fold change", "value": -0.18}]}, {"sequence": "RRIRWRPPRLPRPRPRPDSVPRP", "values": [{"measurement": "shrunken log2 fold change", "value": -0.0816}]}, {"sequence": "RRIRSRPPRLPRPRPRPANIPRP", "values": [{"measurement": "shrunken log2 fold change", "value": -0.484}]}, {"sequence": "RRIRKRPPRLPRPRPRPLWYPRP", "values": [{"measurement": "shrunken log2 fold change", "value": -0.511}]}, {"sequence": "RRIRHRPPRLPRPRPRPCSLPRP", "values": [{"measurement": "shrunken log2 fold change", "value": -0.115}]}, {"sequence": "RRIRWRPPRLPRPRPRPKINPRP", "values": [{"measurement": "shrunken log2 fold change", "value": -0.245}]}, {"sequence": "RRIRRRPPRLPRPRPRPRMYPRP", "values": [{"measurement": "shrunken log2 fold change", "value": -0.152}]}, {"sequence": "RRIRDRPPRLPRPRPRPMFKPRP", "values": [{"measurement": "shrunken log2 fold change", "value": -0.767}]}, {"sequence": "RRIRARPPRLPRPRPRPILLPRP", "values": [{"measurement": "shrunken log2 fold change", "value": -0.293}]}, {"sequence": "RRIRLRPPRLPRPRPRPPCHPRP", "values": [{"measurement": "shrunken log2 fold change", "value": -0.178}]}, {"sequence": "RRIRYRPPRLPRPRPRPYDLPRP", "values": [{"measurement": "shrunken log2 fold change", "value": -0.0181}]}, {"sequence": "RRIRRRPPRLPRPRPRPHVFPRP", "values": [{"measurement": "shrunken log2 fold change", "value": 2.42}]}, {"sequence": "RRIRPRPPRLPRPRPRPDPYPRP", "values": [{"measurement": "shrunken log2 fold change", "value": 0.0668}]}, {"sequence": "RRIRSRPPRLPRPRPRPKHSPRP", "values": [{"measurement": "shrunken log2 fold change", "value": -0.572}]}, {"sequence": "RRIRCRPPRLPRPRPRPLSCPRP", "values": [{"measurement": "shrunken log2 fold change", "value": -0.184}]}]}
